# B1: 14-3-3θ protein (natural protein)
# chain: EKTELIQKAKLAEQAERYDDMATCMKAVTEQGAELSNEERNLLSVAYKNVVGGRRSAWRVISSIEQKTDTSDKKLQLIKDYREKVESELRSICTTVLELLDKYLIANATNPESKVFYLKMKGDYFRYLAEVACGDDRKQTIDNSQGAYQEAFDISKKEMQPTHPIRLGLALNFSVFYYEILNNPELACTLAKTAFDEAIAELDTLNEDSYKDSTLIMQLLRDNLTLWTSDSAG
# Target: the molecule itself
# Assay: crystal structure
protein,measurement,value
B1,stoichiometry N,2

# Source: PMC7578760 (iScience, 2020)
